The values below are quoted from earlier work in paper PMC11339341.

Read-outs that look alike come from different tables or passages of the source.

Some targets named below: IFNAR1 (Homo sapiens) (UniProt P17181); IL-2Rβ:γc (Homo sapiens) (UniProt P14784); IL-4Rα (Homo sapiens) (UniProt P24394).
Series [1] deals with IFNAR2 (Homo sapiens) (UniProt P48551).
The target is the same in series [2]. The source holds these as a separate data set.
The target of series [3] is IL-2Rβ (Homo sapiens) (UniProt P14784).
For series [4] the target is unchanged. The source holds these as a separate data set.
Series [5] shares this target. This is another data set of the same source.
For series [6] the target is unchanged. This is another data set of the same source.

Sequence of UniProt P48551 (P48551 27-243): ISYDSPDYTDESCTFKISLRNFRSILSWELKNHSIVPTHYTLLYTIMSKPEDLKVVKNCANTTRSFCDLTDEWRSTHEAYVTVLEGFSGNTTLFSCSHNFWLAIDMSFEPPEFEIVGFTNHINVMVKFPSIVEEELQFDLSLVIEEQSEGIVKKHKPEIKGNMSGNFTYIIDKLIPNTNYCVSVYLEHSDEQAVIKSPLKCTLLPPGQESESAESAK
Sequence of UniProt P17181 (P17181 28-436): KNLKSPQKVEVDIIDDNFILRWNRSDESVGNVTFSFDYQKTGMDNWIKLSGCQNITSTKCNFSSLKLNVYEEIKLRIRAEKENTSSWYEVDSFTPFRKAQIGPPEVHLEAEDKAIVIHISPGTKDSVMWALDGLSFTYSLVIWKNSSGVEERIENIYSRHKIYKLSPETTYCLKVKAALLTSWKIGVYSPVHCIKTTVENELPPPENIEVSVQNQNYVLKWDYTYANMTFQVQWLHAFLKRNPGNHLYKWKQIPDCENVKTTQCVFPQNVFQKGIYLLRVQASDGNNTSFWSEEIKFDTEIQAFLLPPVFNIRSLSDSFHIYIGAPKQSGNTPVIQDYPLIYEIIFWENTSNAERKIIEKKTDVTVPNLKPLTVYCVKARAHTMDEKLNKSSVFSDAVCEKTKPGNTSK

What is called Kd is a measure of binding affinity in units of concentration. With IFNα1 (from UniProt P0DY56), the Kd with IFNAR2 (Homo sapiens) [1] was 200 nM.

As to IFNβ (from UniProt P01574), the Kd with IFNAR2 (Homo sapiens) [2] was 0.2 nM; with IFNAR1 (Homo sapiens), 50 nM.

On to IL-2 (from UniProt P60568), for which the Kd is 100 nM in the series with IL-2Rβ (Homo sapiens) [3] and 1 nM with IL-2Rβ:γc (Homo sapiens).

Turning to “IL-2:IL-2Rα complex (from UniProt P60568)”, the Kd with IL-2Rβ (Homo sapiens) [4] is 0.03 nM.

On to IL-4 (from UniProt P05112), for which the Kd in the series with IL-4Rα (Homo sapiens) is less than 1 nM.

IL-15 (from UniProt P40933): the Kd with IL-2Rβ (Homo sapiens) [5] is 438 nM.

Turning to “IL-15:IL-15Rα complex (from UniProt P40933)”, the Kd in the series with IL-2Rβ (Homo sapiens) [6] is 3 nM.
